Measurements: US11535824B2, “Nuclear transfer” (Sung Kwang Medical Foundation, priority 2015, dated 2022)

How the values were obtained:
cancer models = conditions: variety of in vitro and in vivo cancer models; cited from earlier work
[1] = tested on: primary human fibroblasts; conditions: without MYC or KLF4; cited from earlier work
H4R3 = conditions: cited from earlier work
SCNT-generated embryos = conditions: cited from earlier work
adult stem cells = conditions: cited from earlier work
[2] = tested on: mouse embryos obtained from SCNT; experiment: CPP-CARM1 protein treatment of 8-cell SCNT embryos; development to blastocyst; assay type: cell-based; conditions: for % of developed to BLs: calculated from 2 cell cleavaged embryos
Experimental: The above preliminary results were extended in further studies utilizing protein treatment. SCNT oocytes were cultured with protein of CARM1 on third day after formation of fertilized embryo to investigate the influence on the development rate into blastocyst. Specifically, mouse embryos obtained from SCNT were cultured to 8-cell stage in embryo culture medium (potassium simplex-optimized medium, KSOM; Millipore, Danvers, Mass.) containing 10% SPS (Sage, Trumbull, Conn.). And then, 8-cell embryos were cultured at 37° C. and 5% CO2 for 48 h in embryo culture medium with 2 μg/ml CPP-CARM1 recombinant protein or DsRed protein (control—non-functional protein) under mineral oil (Sage). Embryonic development was monitored for a further 2 days. CARM1 or DsRed cDNA was inserted into a pET vector to construct an expression plasmid for CARM1 conjugated to 7× arginine (a cell-penetrating peptide (CPP) domain) and a 6×His-tag. The CPP-CARM1 protein expression vector was transformed into BL21 (DE3) pLysS-competent cells (Stratagene Inc., La Jolla, Calif.). Transformed cells were cultured and induced by 1 mM isopropyl-1-thio-β-D-galactopyranoside (IPTG) for 8 h at 20° C. to produce the CPP-CARM1 or DsRed proteins.

## CC(C)N(C[C@H]1O[C@@H](n2cnc3c(N)ncnc32)[C@H](O)[C@@H]1O)[C@H]1C[C@@H](CCc2nc3cc(C(C)(C)C)ccc3[nH]2)C1 [EPZ5676]
Cancer models
  anticancer chemotherapeutic activity: exhibit anticancer chemotherapeutic activity

## Cc1cc(C)c(CNC(=O)c2cc(-c3ccc(CN4CCOCC4)cc3)cc3c2cnn3C2CCCC2)c(=O)[nH]1 [EPZ005687]
Cancer models
  anticancer chemotherapeutic activity: exhibit anticancer chemotherapeutic activity

## CC[C@H](C)n1cc(C)c2c(C(=O)NCc3c(C)cc(C)[nH]c3=O)cc(-c3ccc(N4CCNCC4)nc3)cc21 [GSK126]
Cancer models
  anticancer chemotherapeutic activity: exhibit anticancer chemotherapeutic activity

## CCCC(CCC)C(=O)O [Valproic acid]
[1]
  reprogramming with two factors, OCT4 and SOX2: enables the reprogramming

## Nc1ccc(S(=O)(=O)c2ccc(NCN3C(=O)NC(=O)C(=O)C3=O)cc2)cc1 [allantodapsone]
H4R3
  methylation at H4R3: hypomethylation

## CC(/C=C/C(=O)NO)=C\[C@@H](C)C(=O)c1ccc(N(C)C)cc1 [trichostatin A]
SCNT-generated embryos; SCNT-generated embryos
  chromosome decondensation and nuclear volume: increase
SCNT-generated embryos; additive in nuclear transfer
  cloning efficiency: improve cloning efficiency

B1: coactivator-associated arginine methyltransferase 1 (protein, UniProt Q86X55 2-608, looked up)
Histone-arginine …: AAAAAAVGPGAGGAGSAVPGGAGPCATVSVFPGARLLTIGDANGEIQRHAEQQALRLEVRAGPDSAGIALYSHEDVCVFKCSVSRETECSRVGKQSFIITLGCNSVLIQFATPNDFCSFYNILKTCRGHTLERSVFSERTEESSAVQYFQFYGYLSQQQNMMQDYVRTGTYQRAILQNHTDFKDKIVLDVGCGSGILSFFAAQAGARKIYAVEASTMAQHAEVLVKSNNLTDRIVVIPGKVEEVSLPEQVDIIISEPMGYMLFNERMLESYLHAKKYLKPSGNMFPTIGDVHLAPFTDEQLYMEQFTKANFWYQPSFHGVDLSALRGAAVDEYFRQPVVDTFDIRILMAKSVKYTVNFLEAKEGDLHRIEIPFKFHMLHSGLVHGLAFWFDVAFIGSIMTVWLSTAPTEPLTHWYQVRCLFQSPLFAKAGDTLSGTCLLIANKRQSYDISIVAQVDQTGSKSSNLLDLKNPFFRYTGTTPSPPPGSHYTSPSENMWNTGSTYNLSSGMAVAGMPTAYDLSSVIASGSSVGHNNLIPLANTGIVNHTHSRMGSIMSTGIVQGSSGAQGSGGGSTSAHYAVNSQFTMGGPAISMASPMSIPTNTMHYGS
notes: member of the protein arginine methyltransferase (PRMT) family
Adult stem cells
  expression of Oct-4, Sox-2 and nanog: upregulated
[2]; Total of three experiments
  No. of developed to BLs: 26
  % of developed to BLs: (38.2) %
[2]; experiment 1
  % of developed to BLs: (46.2) %
[2]; experiment 1, treatment D 3, cumulus donor cell, KSOM
  No. of developed to BLs: 12
[2]; experiment 2
  % of developed to BLs: (40) %
[2]; experiment 2, treatment D 3, cumulus donor cell, KSOM
  No. of developed to BLs: 10
[2]; experiment 3
  % of developed to BLs: (23.5) %
[2]; experiment 3, treatment D 3, cumulus donor cell, KSOM
  No. of developed to BLs: 4
